Test results as given in EP1198239B1 (Cancer Research Ventures Limited, dated 2007).

Legend:
[1] = target: Kid (Escherichia coli plasmid R1) (UniProt P13976); experiment: cell-based or functional assay
[2] = target: T1, Kid (Escherichia coli plasmid R1, UniProt P13976 24-133); experiment: co-retention of untagged Kid with HisKis on Ni2+-activated chelating sepharose; Kid released only by denaturation (eluted at 5.5 M guanidinium chloride)
T1 construct: expressed from p424Met25Kid in yeast and from pNATHA2 in HeLa cells; also called ParD kid toxin; killing determinant
T1 sequence (looked up): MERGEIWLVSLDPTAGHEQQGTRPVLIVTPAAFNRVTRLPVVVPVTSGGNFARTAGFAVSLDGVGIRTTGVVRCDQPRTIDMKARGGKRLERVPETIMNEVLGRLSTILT

## Kis (from UniProt P13975 1-85)
[1]
  dead cells (trypan blue), all other samples (incl. kis+/kid+ HeLa cells without Doxycyclin, Kis expressed): < 9%
  dead cells (trypan blue), kis+/kid+ HeLa cells in presence of Doxycyclin, day five: 32%
  dead cells (trypan blue), kis+/kid+ HeLa cells in presence of Doxycyclin, day ten: 65%

B1: HisKis (other, Escherichia coli plasmid R1, UniProt P13975 1-85, looked up)
chain: MHTTRLKRVGGSVMLTVPPALLNALSLGTDNEVGMVIDNGRLIVEPYRRPQYSLAELLAQCDPNAEISAEEREWLDAPATGQEEI
notes: Co-expressed with Kid from pRG-HisKisKid in E. coli C600 or TG1; also called His-tagged Kis; ParD kis antitoxin with N-terminal His tag; not shown: N-terminal His tag and linker from vector pET15b, subcloned into pRG-recA-NHis
[2]
  binding result: binds
